{
  "source": "patent US20240116985A1",
  "about": "(published 2024)",
  "binders": {"B1": {"name": "I-137 (peptide)", "peptide": "XDAXDEAAFVXFXQ", "modifications": "not fully specified; as printed: Ac-PL3-Asp-Ala-B5-Asp-Glu-Ala-Ala-Phe-Val-S8-Phe-aMeW-Gln-NH2; N-terminal acetyl, C-terminal amide; PL3(1), B5(4), S8(11), aMeW(13); staples PL3-B5 and B5-S8 by olefin metathesis", "notes": "stapled peptide"}, "B2": {"name": "I-149 (peptide)", "peptide": "DIXDDAAFQXFWH", "modifications": "not fully specified; as printed: Ac-Asp-Ile-RdN-Asp-Asp-Ala-Ala-Phe-Gln-S7-Phe-Trp-His-NH2; N-terminal acetyl, C-terminal amide; RdN(3), S7(10); staple RdN-S7 by olefin metathesis", "notes": "stapled peptide"}, "B3": {"name": "I-136 (peptide)", "peptide": "XDAXDEAAFVXFXQ", "modifications": "not fully specified; as printed: Ac-PL3-Asp-Ala-B5-Asp-Glu-Ala-Ala-Phe-Val-S8-Phe-aMeW-Gln-NH2; N-terminal acetyl, C-terminal amide; PL3(1), B5(4), S8(11), aMeW(13); staples PL3-B5 and B5-S8 by olefin metathesis", "notes": "stapled peptide"}, "B4": {"name": "I-239 (peptide)", "peptide": "Ac-[αAllylPro]DA[B5(5)]DDAA[Phe(3-CF3)]V[S8]FWQ-NH2", "modifications": "staple 1-4, 4-11; not fully specified; printed as Ac-PL3-Asp-Ala-B5-Asp-Asp-Ala-Ala-3F3MeF-Val-S8-Phe-Trp-Gln-NH2", "notes": "Stapled peptide composition; also called Ac-PL3-Asp-Ala-B5-Asp-Asp-Ala-Ala-3F3MeF-Val-S8-Phe-Trp-Gln-NH2"}, "B5": {"name": "I-242 (peptide)", "peptide": "Ac-[αAllylPro]DA[B5(5)]DDAA[Phe(4-CF3)]V[S8]FWQ-NH2", "modifications": "staple 1-4, 4-11; not fully specified; printed as Ac-PL3-Asp-Ala-B5-Asp-Asp-Ala-Ala-4F3MeF-Val-S8-Phe-Trp-Gln-NH2", "notes": "Stapled peptide composition; also called Ac-PL3-Asp-Ala-B5-Asp-Asp-Ala-Ala-4F3MeF-Val-S8-Phe-Trp-Gln-NH2"}, "B6": {"name": "I-249 (peptide)", "peptide": "Ac-[αAllylPro]DA[B5(4)]DDAAFV[S8][Phe(3-CF3)]WQ-NH2", "modifications": "staple 1-4, 4-11", "notes": "Stapled peptide composition; also called Ac-PL3-Asp-Ala-B5-Asp-Asp-Ala-Ala-Phe-Val-S8-3F3MeF-Trp-Gln-NH2"}, "B7": {"name": "I-240 (peptide)", "peptide": "Ac-[αAllylPro]DA[B5(5)]DDAA[Phe(4-CF3)]V[S8]FWQ-NH2", "modifications": "staple 1-4, 4-11; not fully specified; printed as Ac-PL3-Asp-Ala-B5-Asp-Asp-Ala-Ala-4F3MeF-Val-S8-Phe-Trp-Gln-NH2", "notes": "as for B5"}, "B8": {"name": "I-241 (peptide)", "peptide": "Ac-[αAllylPro]DA[B5(5)]DDAA[Phe(4-CF3)]V[S8]FWQ-NH2", "modifications": "staple 1-4, 4-11; not fully specified; printed as Ac-PL3-Asp-Ala-B5-Asp-Asp-Ala-Ala-4F3MeF-Val-S8-Phe-Trp-Gln-NH2", "notes": "as for B5"}, "B9": {"name": "I-253 (peptide)", "peptide": "Ac-[αAllylPro]DA[B5(4)]DDAAFV[S8][Phe(4-CF3)]WQ-NH2", "modifications": "staple 1-4, 4-11", "notes": "Stapled peptide composition; also called Ac-PL3-Asp-Ala-B5-Asp-Asp-Ala-Ala-Phe-Val-S8-4F3MeF-Trp-Gln-NH2"}, "B10": {"name": "I-243 (peptide)", "peptide": "Ac-[αAllylPro]DA[B5(5)]DDAA[Phe(4-CF3)]V[S8]FWQ-NH2", "modifications": "staple 1-4, 4-11; not fully specified; printed as Ac-PL3-Asp-Ala-B5-Asp-Asp-Ala-Ala-4F3MeF-Val-S8-Phe-Trp-Gln-NH2", "notes": "as for B5"}, "B11": {"name": "I-248 (peptide)", "peptide": "Ac-[αAllylPro]DA[B5(4)]DDAAFV[S8][Phe(3-CF3)]WQ-NH2", "modifications": "staple 1-4, 4-11", "notes": "as for B6"}, "B12": {"name": "I-252 (peptide)", "peptide": "Ac-[αAllylPro]DA[B5(4)]DDAAFV[S8][Phe(4-CF3)]WQ-NH2", "modifications": "staple 1-4, 4-11", "notes": "as for B9"}},
  "note": "Starred links: 1 amine or outer side, 2 acyl side, 3 side chain; linkers in the order of their positions; H or OH if unused. Positions of bridges follow the written chain, without caps; N, C: chain ends. Non-standard residues stand in square brackets, D forms with d. Primed or numbered codes have the meaning given here. B5(16) = 2-amino-2-(pent-4-en-1-yl)hept-6-enoic acid = 2,2-bis(4-pentenyl)glycine (stitching residue), C=CCCCC(CCCC=C)(N[*:1])C(=O)[*:2]; B5(4) = 2,2-bis(4-pentenyl)glycine = 2-amino-2-(pent-4-en-1-yl)hept-6-enoic acid (stitching residue), C=CCCCC(CCCC=C)(N[*:1])C(=O)[*:2]; B5(5) = 2,2-bis(4-pentenyl)glycine, 2-amino-2-(pent-4-en-1-yl)hept-6-enoic acid (stitching residue), C=CCCCC(CCCC=C)(N[*:1])C(=O)[*:2]; RdN = (R)-4-(((allyloxy)carbonyl)(methyl)amino)-2-amino-2-methylbutanoic acid, C=CCOC(=O)N(C)CC[C@@](C)(N[*:1])C(=O)[*:2]; PyrS = (S)-1-((allyloxy)carbonyl)-3-aminopyrrolidine-3-carboxylic acid, C=CCOC(=O)N1CC[C@@](N[*:1])(C(=O)[*:2])C1; 6F1NapA = 2-amino-3-(6-fluoronaphthalen-1-yl)propanoic acid, O=C([C@H](Cc1cccc2cc(F)ccc12)N[*:1])[*:2]; H2Trp = 2,3-dihydrotryptophan (indolin-3-yl alanine); Trp(5-OMe) = COc1ccc2[nH]cc(C[C@H](N)C(=O)O)c2c1; Phe(3-CF3) = N[C@@H](Cc1cccc(C(F)(F)F)c1)C(=O)O; Phe(4-CF3) = N[C@@H](Cc1ccc(C(F)(F)F)cc1)C(=O)O; S7 = C[C@@](CCCCCC=[*:3])(N[*:1])C(=O)[*:2]; αAllylPro = C=CC[C@@]1(C(=O)O)CCCN1; R8 = C=CCCCCCC[C@@](C)(N)C(=O)O; S8 = C=CCCCCCC[C@](C)(N)C(=O)O; Aib = CC(C)(N)C(=O)O",
  "data": [
    {"target": "T1, full-length beta-Catenin (Uniprot ID P35222) (Homo sapiens (Human), UniProt P35222 2-781)", "T1 construct": "the AlphaScreen assay uses a Histidine (Nickel Chelate) detection kit, so a His tag is likely there; also called B-Catenin; bCat", "T1 sequence": "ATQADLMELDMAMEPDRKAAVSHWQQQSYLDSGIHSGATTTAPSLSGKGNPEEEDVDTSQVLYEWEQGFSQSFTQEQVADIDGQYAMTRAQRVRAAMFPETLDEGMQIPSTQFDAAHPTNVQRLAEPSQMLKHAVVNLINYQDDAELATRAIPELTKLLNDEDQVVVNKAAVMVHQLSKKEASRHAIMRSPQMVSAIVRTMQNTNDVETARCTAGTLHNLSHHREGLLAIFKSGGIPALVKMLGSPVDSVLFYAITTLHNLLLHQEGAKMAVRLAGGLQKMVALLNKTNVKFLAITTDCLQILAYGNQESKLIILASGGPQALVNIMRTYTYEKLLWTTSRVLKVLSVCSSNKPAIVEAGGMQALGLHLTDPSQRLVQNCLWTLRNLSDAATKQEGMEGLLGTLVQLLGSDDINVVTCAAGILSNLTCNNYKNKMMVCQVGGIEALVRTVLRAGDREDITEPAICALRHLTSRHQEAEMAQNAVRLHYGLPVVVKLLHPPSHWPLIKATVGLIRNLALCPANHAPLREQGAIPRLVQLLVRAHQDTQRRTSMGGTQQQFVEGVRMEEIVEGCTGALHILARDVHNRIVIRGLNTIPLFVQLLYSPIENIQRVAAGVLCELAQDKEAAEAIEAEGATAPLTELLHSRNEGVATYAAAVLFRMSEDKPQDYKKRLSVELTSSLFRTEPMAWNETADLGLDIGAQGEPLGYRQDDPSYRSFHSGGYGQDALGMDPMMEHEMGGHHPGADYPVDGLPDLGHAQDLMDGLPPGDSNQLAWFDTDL", "experiment": "AlphaScreen competition; full-length beta-catenin with biotin-TCF4(10-53) probe as competitor", "description": "(§1) Equal volume of the titrated peptide was added to the plate and incubated for 15 minutes at 20° C. Then 4 uL of donor and 4 uL acceptor beads at 10 ug/mL were added to the plate, for a 16 uL reaction pool and protected from light for 60 minutes at 20° C. prior to read. Reads were performed on a CLARIOstar plate reader (BMG Labtech) in duplicate, and data were fitted to a 1:1 binding model with hill slope using an in-house script. All provided concentrations are final concentrations.", "units": {"EC50": "µM"}, "values": [
      {"binder": "B1", "EC50": 1.41},
      {"binder": "Ac-[αAllylPro]DA[B5(16)]DEAAFV[S8]F[H2Trp]Q-NH2 (staple 1-4, 4-11, stapled peptide)", "note": "[I-167]", "EC50": 6.2},
      {"binder": "B2", "EC50": 1.79},
      {"binder": "Ac-ADA[RdN]DEAAFQ[S7]FWH-NH2 (staple 4-11, stapled peptide composition)", "note": "[I-156]", "EC50": 4.18},
      {"binder": "B3", "EC50": 3.3},
      {"binder": "Ac-[Aib]DA[R8]DEAAFV[PyrS]FWQ-NH2 (staple 4-11; also: earlier-eluting staple isomer, stapled peptide)", "note": "[I-157]", "EC50": 4.06},
      {"binder": "Ac-[αAllylPro]DA[B5(16)]DEAAFV[S8]F[Trp(5-OMe)]Q-NH2 (staple 1-4, 4-11, stapled peptide composition)", "note": "[I-165]", "EC50": 1.23},
      {"binder": "Ac-[αAllylPro]DA[B5(4)]DEAAFV[S8]F[6F1NapA]Q-NH2 (staple 1-4, 4-11, stapled peptide composition)", "note": "[I-142]", "EC50": 7.37}
    ]},
    {"target": "T2, full-length beta-Catenin (Uniprot ID P35222) (Homo sapiens (Human), UniProt P35222 2-781)", "T2 construct": "The AlphaScreen assay used a Histidine (Nickel Chelate) detection kit, so a His tag is likely, but no tag is described; also called B-Catenin; bCat", "T2 sequence": "T1 sequence", "experiment": "AlphaScreen competition: full-length beta-catenin + biotin-TCF4(10-53) probe, peptide titrated", "description": "as §1", "units": {"EC50": "µM"}, "values": [
      {"binder": "B4", "EC50": 0.267},
      {"binder": "B5", "EC50": 4.91},
      {"binder": "B6", "EC50": 2.83},
      {"binder": "B7", "EC50": 3.47},
      {"binder": "B8", "EC50": 3.47},
      {"binder": "B9", "EC50": 3.69},
      {"binder": "B10", "EC50": 4.91},
      {"binder": "B11", "EC50": 2.83},
      {"binder": "B12", "EC50": 3.69}
    ]}
  ]
}
